# Assay: yeast display, Sf9 membrane polyspecificity reagent, FACS + sequencing; frameworks hold sequencing errors
# Procedure, shortened: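 Polyreactivity labels are assigned by the sorting gate from which each nanobody was recovered. The gates were low and high (top ~1%), set on anti-HA fluorescence for expression and streptavidin fluorescence for reagent binding. Before sorting, galactose-induced (36–48 hours) yeast display cells were stained for 1 hour at 4 °C with 10% biotinylated, detergent-solubilized Sf9 membrane reagent.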
row,Sequence,polyreactivity (PSR sort gate)
1,QVQLVESGGGLVQAGGSLRISCAASGFTFSRNVMGWYRQAPGKERELVADITLSGASTYYADSVKGRFTISRDNAKNTVYLQMNSLNPEDTAGYYCAADPYLWRWGWRHDYWGQGTQVTVSS,low polyreactivity
2,QVQLVESGGGLVQAGGSLRISCAASGFTFTYYTMGWYRQAPGKERELVAAINRSGTSTYYADSVKGRFTISRDNAKNTVYLQMNSLKPEDTAVYYCAAKFTTGYYYGVPRDYWGQGTQVTVSS,high polyreactivity
3,QVQLVESGGGLVQAGGSLRISCAASGFTFYNYAMGWYRQAPGKRELVAAITSGGRTNYADSVKGRFTISRDNAKNTVYLQMNSRIPEDTAVYYCNAYPRWKFRSQVYDGWYGRFDYWGQGTQVTVSS,high polyreactivity
4,QVQLVESGGGLVQAGGSLRISCAASGGIFDTYVMGWYRQAPGKERELVAAISSSGSTTYADSVKGRFTISRDNAKNTVYLQMNSLKPEDTAVYYCNADYSTIWRYDYWGQGTQVTVSS,low polyreactivity
5,QVQLVESGGGLVQAGGSLRISCAASGGNFRYYTMGWYRQAPGKERELVAAITRGGRTYYADSVKGRFTISRDNAKNTVYIQMNSLKPEDTAVYYCAAVRPRSPVSYENDYWGQGTQVTVSS,high polyreactivity
6,QVQLVESGGGLVQAGGSLRISCAASGGTFTKNAMGWYRQAPGKERELLAAISWRGTSTYYADSVKGRFTISRDNAKNTVYLQMNSLKPEDTAVYYCNTDRYFRRYYWYDYWGQGTQVTVSS,high polyreactivity
7,QVQLVESGGGLVQAGGSLRISCAASGIIFKQNVMGWYRQAPGKERELVAAITSRDGSTYYADSVKGRFTISRDNAKNTVYLQMNSLKPEDTAVYYCAANWRSPRYYLYGYWGQGTQVTVSS,high polyreactivity
8,QVQLVESGGGLVQAGGSLRISCAASGIIFPYAMGWYRQAPGKERELVARITVGSTSYADSVKGRFTISRDNAKNTVYVQMNSLKPEDTAVYYCNKDSGEDDRWPYDYWGQGTQVTVSS,low polyreactivity
9,QVQLVESGGGLVQAGGSLRISCAASGIIFPYYVMGWYRQAPGKERELVAAINSGGRTYYADSVKGRFTISRDNAKNTVYLQMNSLKPEDTAVYYCARDLYYVYSFAPYRYEYWGQGTQVTVSS,low polyreactivity
10,QVQLVESGGGLVQAGGSLRISCAASGIIFRGNAMGWYRQAPGKERELVAAISSGGGTYYADSVKGRLTISRDNAKNTVYLQMNSLKPEDTAVYYCNRVRYYQYGYDYWGQGTEVTVSS,high polyreactivity
11,QVQLVESGGGLVQAGGSLRISCAASGITFPYYAMGWYRQAPGKERELVADITSGGSTNYADSVKGRFTISRDNAKNTVYLQMNSLKPEDTAVYYCAADWYVIYDYWGQGTQVTVSS,low polyreactivity
12,QVQLVESGGGLVQAGGSLRISCAASGITFRYYAMGWSIQAPGKERELVAAITCNGGGTYADSVKGRFTISRDNAKYTVYLEMNSLKPEDTAVYSCSADYGRRWGYDYWGQGTQVTVSS,low polyreactivity
13,QVQLVESGGGLVQAGGSLRISCAASGITFWYYAMGWYRQAPGKERELVAAITRSGRTNYADSVKGRFTISRDNAKNTVYLQMNSLKPEDTAVYYCNAASLRYSYTLFDSWGLGTQVTVSS,high polyreactivity
14,QVQLVESGGGLVQAGGSLRISCAASGITLNVYAMGWYRQAPGKERELVAAISYNGGRTYYADSVKGRFTISRDNAKNTVYLQMNSLKPEDTAVYYCAAQWPWGPYDYWGQGTQVTVSS,high polyreactivity
15,QVQLVESGGGLVQAGGSLRISCAASGITLYNYPMGWYRQAPGKERELVAAISLSGGRTYYAESVKGRFTISRDNAKNTVYLQMNSLQTEDTAVYYCAADWLNSDPYNYWGQGTQVTVSS,low polyreactivity
16,QVQLVESGGGLVQAGGSLRISCAASGLILIVYAMGWYRQAPGKERELVAAISSGGITYYADSVKGRFTISRDNAKNTVYLQMNSLKPEDTAVYYCAAESAYWWGDYYYWGQGTQVTVSS,high polyreactivity
17,QVQLVESGGGLVQAGGSLRISCAASGNAMGWYRQAPGKERELVAVITGGGSTYYADSVKGRFTISRDNAKNTVYLQMNSLKPEDTAVYYCAAKGPYYKSSRTGDYWGQGTQVTVSS,low polyreactivity
18,QVQLVESGGGLVQAGGSLRISCAASGNILFSYAMGWYRQAPGKERELVAAISRSGGSTYYADSVKGRFTISRDNAKNTVYLQMNSLKPEDTAVYYCNTYSIAYYSPGYDYWGQGTQVTVSS,high polyreactivity
19,QVQLVESGGGLVQAGGSLRISCAASGNSFVSNVMGWYREAPGKERELVAAISSGGRTYYADSVKGRFTISRDNAKNTVYLQMNSLKPEDTAVYYCAASYKSKYLGGGEYWGQGTQVTLSS,high polyreactivity
20,QVQLVESGGGLVQAGGSLRISCAASGNTFTRNTMGWYRQAPGKERELVASISLSGASTYYADSVKGRFTISRDNAKNTVYLQMNSLKPEDTAVYYCAARSRQDLEYDYWGQGTQVTVSS,high polyreactivity
21,QVQLVESGGGLVQAGGSLRISCAASGRIFATNAMGWYRQAPGKERELVAVITGGGDTNYADSVKGRFTISRDNAKNTVYLQMNSLKPEDTAVYYCAAEGSFYRYHVGSDYWGQGTQVTVSS,low polyreactivity
22,QVQLVESGGGLVQAGGSLRISCAASGRIFERNAMRWYRQAPGKERELVAAITYNGGRTYYADSVKGRFTISRDNAKITVYLQMNSLKPEDTAVYNCNAQSRVTRSSYRGSPRYDFWGQGTQVTVSS,high polyreactivity

row,Sequence,polyreactivity (PSR sort gate)
1,QVQLVESGGGLVQAGGSLRISCAASGRIFFTNAMGWYRQAPGKDRELVAAISKSGARTYYADSVKGRFTISRDNAKNTVYLQMNSLKPEDTAVYYCSEFYYWGQGTQVTVSS,high polyreactivity
2,QVQLVESGGGLVQAGGSLRISCAASGRIFHGNARGWYRPAPGKERELVAAITSGGRTFYADSVKGRFTISRDNAKNTVYLQLHSLKPEDTAVYYCNAPSIAGYAEYNSHDYWGHGTQVTVSS,high polyreactivity
3,QVQLVESGGGLVQAGGSLRISCAASGRIFRGNALGWYRQAPGTERELVAAITRSGGSTYYADSVKGRFTISRDNAKNTVYLQMNSLKPEDTAVYYCAAGYPYYSYLYDYWGQGTQVSVSS,high polyreactivity
4,QVQLVESGGGLVQAGGSLRISCAASGRIFYENTMGWYRQAPGKETELVAVITSTGNTNYADSVKGRFTISRDNAKNTVYLQMNSLKPEVTAVYYCAADSPPGGYVFPERPYDYWGQGTQVTVSS,low polyreactivity
5,QVQLVESGGGLVQAGGSLRISCAASGRIFYYNVMGWYRQAPGKEWELVASISYSSTRTYYADSVKGRFTISRDNGMNTFYLQMNSLKPEDTAVYYCAVDGYSYYSMDYWGQGTQVTVSS,low polyreactivity
6,QVQLVESGGGLVQAGGSLRISCAASGRISVVNAMGWYRQAPGKEREMVAAIRRASTNYADSVKGRFTISRDNAKNTVYLQMNSLKPEDTAVYFCAARVYGINIFEYWGQGTQVTVSS,high polyreactivity
7,QVQLVESGGGLVQAGGSLRISCAASGRNLSVYAMGWYRPAPGKERELVATITGRGGGTYYADSVKGRFTISRDNAKNTVYLQMNRLKPEDTAVYYCAADLVDFWYQITTHYDYWGQGTEVTVSS,low polyreactivity
8,QVQLVESGGGLVQAGGSLRISCAASGRTFADYAMGWSRQEPGKERELVAAISWSGGSTYYADSVKGRFTISCDNAKNTVYLQMNSLKPEDTAVYYSNAVRQRGYDYWGQGTQVTVSS,low polyreactivity
9,QVQLVESGGGLVQAGGSLRISCAASGRTFDRYAMGWYREAPGKERELVAVIRFIGGSTYYADSVKGRFTISRDNAKKTVYLQRNSLIPEDTAVYYCAAEVYDSYFFGYEYWGQGTQVTVSS,low polyreactivity
10,QVQLVESGGGLVQAGGSLRISCAASGRTFGANAMGWYRQAPGKERELVAGITSSGGSTSYADSVKGRFTISRDNAKNTVYLQMNSLKPEDTAVYYCAKDVYQHIFDVILGGYDSWGQGTQVTVSS,low polyreactivity
11,QVQLVESGGGLVQAGGSLRISCAASGRTFGINAMGWYRQAPGKERELVAAISSSGSTYYADSVKGRFTISRDNAKNTVYLQMNSLKPEDTAVYYCAAVAKQWGNTYYYWGQGTQVTVSS,high polyreactivity
12,QVQLVESGGGLVQAGGSLRISCAASGRTFLSYGMGWYRQAPGKERELVATIDDSGSTYYADSVKGRFTISRDNAKNTVYLQMNSLKPEDTAVYYCATDRQVFYWDFWYIEYDYGGQGTQVTVSS,high polyreactivity
13,QVQLVESGGGLVQAGGSLRISCAASGRTFPCKAMGWYRQAPGKERELVATITWSSGRTHYADSVKGRFTISRDNAKNTVYLQMNSLKPEDSAVYYCAAKWIVAVVGFYYWGQGTQVTVSS,low polyreactivity
14,QVQLVESGGGLVQAGGSLRISCAASGRTFSSYAMGWYRQAPGKERELVARISSSGGRTSYADSVKGRFTISRDNAKNTVYLQMNSLKPEDTAVYYCATEWSDRNDYWGQGTQVTVSS,high polyreactivity
15,QVQLVESGGGLVQAGGSLRISCAASGSIFAKNAMGWYRQAPGKERELVAGIDFSGGSTYYADSVKGRFTISRDNAKNTVYLQMNSLKPEDTAVYYCAADWAYKYELDYWGQGTQVTVSS,low polyreactivity
16,QVQLVESGGGLVQAGGSLRISCAASGSIFPHYAMGWYRQSPAKERELVAAISYSGGRTYYADSVKGRFTISRDNAKNTFYLQMNSLKPEDTAVYYCAKTERVLYHGDYWGQGTQVTVSS,low polyreactivity
17,QVQLVESGGGLVQAGGSLRISCAASGSIFQNYAMGGYRQAPGKERELVAAINDDSTYYADSVKGRFTISRDNAKNPVDLQMNSLKPEDTAVYYGNKEFLRRQRVTFWHLGGYWGQGTQVTVSS,low polyreactivity
18,QVQLVESGGGLVQAGGSLRISCAASGSIFRINAMGWYRQAHGKEMELVAAITASGDRTYYADSVKGRFTISRDNAKNTVYLQMNSLKPEDTAVFYCAVDSYYPASSLVAFPYAPRYDYWGQGTQVTVSS,low polyreactivity
19,QVQLVESGGGLVQAGGSLRISCAASGSIFRRYAMGWYSQAPGKERDLVATISSVTTTNYADSVKGRFTISRDNANNTVYLQMNSLKPEDTSVFYCAAVVYGQRRGPGQRKSYWGQGTQVTVSS,high polyreactivity
20,QVQLVESGGGLVQAGGSLRISCAASGSIFRYYYMGWYSQAPGKERELVAAITYSGGGTYYADSVKGRFTISRDNAKNTVYLQMNSLKAEDTAVYYCAVRRVGSIYIDRYIYVVSDYFYWGNGTQVTVSS,low polyreactivity
21,QVQLVESGGGLVQAGGSLRISCAASGSIFSDNGMGWYRQAPGKERELVAAITIGGSTNYADSVKGRFTISRDNAKNTVYLLMKRLNPEDTAVYYCNTDFFYYGYNFPYFDYDYWGQGTQVTVSA,low polyreactivity

# From the nanobody polyreactivity screen of Harvey et al. (2022)
